For assay [1], the target named is low density lipoprotein receptor-related protein (LRP), purified and immobilized (UniProt Q07954). As to the kind of experiment: SPR, LRP immobilized (8.3 fmol/mm^2), analyte 100 nM, corrected for nonspecific binding. On the technique in general: Surface plasmon resonance follows binding to a sensor surface in real time, without labels.
Assay [2] deals with LRP exposed on the surface of mouse fibroblast (C127) cells (mouse (mouse fibroblast cells)) (UniProt Q91ZX7). Nature of the assay: cell-based or functional assay.
Chain of LRP exposed on the surface of mouse fibroblast (C127) cells (mouse (mouse fibroblast cells)) (Q91ZX7 20-4545): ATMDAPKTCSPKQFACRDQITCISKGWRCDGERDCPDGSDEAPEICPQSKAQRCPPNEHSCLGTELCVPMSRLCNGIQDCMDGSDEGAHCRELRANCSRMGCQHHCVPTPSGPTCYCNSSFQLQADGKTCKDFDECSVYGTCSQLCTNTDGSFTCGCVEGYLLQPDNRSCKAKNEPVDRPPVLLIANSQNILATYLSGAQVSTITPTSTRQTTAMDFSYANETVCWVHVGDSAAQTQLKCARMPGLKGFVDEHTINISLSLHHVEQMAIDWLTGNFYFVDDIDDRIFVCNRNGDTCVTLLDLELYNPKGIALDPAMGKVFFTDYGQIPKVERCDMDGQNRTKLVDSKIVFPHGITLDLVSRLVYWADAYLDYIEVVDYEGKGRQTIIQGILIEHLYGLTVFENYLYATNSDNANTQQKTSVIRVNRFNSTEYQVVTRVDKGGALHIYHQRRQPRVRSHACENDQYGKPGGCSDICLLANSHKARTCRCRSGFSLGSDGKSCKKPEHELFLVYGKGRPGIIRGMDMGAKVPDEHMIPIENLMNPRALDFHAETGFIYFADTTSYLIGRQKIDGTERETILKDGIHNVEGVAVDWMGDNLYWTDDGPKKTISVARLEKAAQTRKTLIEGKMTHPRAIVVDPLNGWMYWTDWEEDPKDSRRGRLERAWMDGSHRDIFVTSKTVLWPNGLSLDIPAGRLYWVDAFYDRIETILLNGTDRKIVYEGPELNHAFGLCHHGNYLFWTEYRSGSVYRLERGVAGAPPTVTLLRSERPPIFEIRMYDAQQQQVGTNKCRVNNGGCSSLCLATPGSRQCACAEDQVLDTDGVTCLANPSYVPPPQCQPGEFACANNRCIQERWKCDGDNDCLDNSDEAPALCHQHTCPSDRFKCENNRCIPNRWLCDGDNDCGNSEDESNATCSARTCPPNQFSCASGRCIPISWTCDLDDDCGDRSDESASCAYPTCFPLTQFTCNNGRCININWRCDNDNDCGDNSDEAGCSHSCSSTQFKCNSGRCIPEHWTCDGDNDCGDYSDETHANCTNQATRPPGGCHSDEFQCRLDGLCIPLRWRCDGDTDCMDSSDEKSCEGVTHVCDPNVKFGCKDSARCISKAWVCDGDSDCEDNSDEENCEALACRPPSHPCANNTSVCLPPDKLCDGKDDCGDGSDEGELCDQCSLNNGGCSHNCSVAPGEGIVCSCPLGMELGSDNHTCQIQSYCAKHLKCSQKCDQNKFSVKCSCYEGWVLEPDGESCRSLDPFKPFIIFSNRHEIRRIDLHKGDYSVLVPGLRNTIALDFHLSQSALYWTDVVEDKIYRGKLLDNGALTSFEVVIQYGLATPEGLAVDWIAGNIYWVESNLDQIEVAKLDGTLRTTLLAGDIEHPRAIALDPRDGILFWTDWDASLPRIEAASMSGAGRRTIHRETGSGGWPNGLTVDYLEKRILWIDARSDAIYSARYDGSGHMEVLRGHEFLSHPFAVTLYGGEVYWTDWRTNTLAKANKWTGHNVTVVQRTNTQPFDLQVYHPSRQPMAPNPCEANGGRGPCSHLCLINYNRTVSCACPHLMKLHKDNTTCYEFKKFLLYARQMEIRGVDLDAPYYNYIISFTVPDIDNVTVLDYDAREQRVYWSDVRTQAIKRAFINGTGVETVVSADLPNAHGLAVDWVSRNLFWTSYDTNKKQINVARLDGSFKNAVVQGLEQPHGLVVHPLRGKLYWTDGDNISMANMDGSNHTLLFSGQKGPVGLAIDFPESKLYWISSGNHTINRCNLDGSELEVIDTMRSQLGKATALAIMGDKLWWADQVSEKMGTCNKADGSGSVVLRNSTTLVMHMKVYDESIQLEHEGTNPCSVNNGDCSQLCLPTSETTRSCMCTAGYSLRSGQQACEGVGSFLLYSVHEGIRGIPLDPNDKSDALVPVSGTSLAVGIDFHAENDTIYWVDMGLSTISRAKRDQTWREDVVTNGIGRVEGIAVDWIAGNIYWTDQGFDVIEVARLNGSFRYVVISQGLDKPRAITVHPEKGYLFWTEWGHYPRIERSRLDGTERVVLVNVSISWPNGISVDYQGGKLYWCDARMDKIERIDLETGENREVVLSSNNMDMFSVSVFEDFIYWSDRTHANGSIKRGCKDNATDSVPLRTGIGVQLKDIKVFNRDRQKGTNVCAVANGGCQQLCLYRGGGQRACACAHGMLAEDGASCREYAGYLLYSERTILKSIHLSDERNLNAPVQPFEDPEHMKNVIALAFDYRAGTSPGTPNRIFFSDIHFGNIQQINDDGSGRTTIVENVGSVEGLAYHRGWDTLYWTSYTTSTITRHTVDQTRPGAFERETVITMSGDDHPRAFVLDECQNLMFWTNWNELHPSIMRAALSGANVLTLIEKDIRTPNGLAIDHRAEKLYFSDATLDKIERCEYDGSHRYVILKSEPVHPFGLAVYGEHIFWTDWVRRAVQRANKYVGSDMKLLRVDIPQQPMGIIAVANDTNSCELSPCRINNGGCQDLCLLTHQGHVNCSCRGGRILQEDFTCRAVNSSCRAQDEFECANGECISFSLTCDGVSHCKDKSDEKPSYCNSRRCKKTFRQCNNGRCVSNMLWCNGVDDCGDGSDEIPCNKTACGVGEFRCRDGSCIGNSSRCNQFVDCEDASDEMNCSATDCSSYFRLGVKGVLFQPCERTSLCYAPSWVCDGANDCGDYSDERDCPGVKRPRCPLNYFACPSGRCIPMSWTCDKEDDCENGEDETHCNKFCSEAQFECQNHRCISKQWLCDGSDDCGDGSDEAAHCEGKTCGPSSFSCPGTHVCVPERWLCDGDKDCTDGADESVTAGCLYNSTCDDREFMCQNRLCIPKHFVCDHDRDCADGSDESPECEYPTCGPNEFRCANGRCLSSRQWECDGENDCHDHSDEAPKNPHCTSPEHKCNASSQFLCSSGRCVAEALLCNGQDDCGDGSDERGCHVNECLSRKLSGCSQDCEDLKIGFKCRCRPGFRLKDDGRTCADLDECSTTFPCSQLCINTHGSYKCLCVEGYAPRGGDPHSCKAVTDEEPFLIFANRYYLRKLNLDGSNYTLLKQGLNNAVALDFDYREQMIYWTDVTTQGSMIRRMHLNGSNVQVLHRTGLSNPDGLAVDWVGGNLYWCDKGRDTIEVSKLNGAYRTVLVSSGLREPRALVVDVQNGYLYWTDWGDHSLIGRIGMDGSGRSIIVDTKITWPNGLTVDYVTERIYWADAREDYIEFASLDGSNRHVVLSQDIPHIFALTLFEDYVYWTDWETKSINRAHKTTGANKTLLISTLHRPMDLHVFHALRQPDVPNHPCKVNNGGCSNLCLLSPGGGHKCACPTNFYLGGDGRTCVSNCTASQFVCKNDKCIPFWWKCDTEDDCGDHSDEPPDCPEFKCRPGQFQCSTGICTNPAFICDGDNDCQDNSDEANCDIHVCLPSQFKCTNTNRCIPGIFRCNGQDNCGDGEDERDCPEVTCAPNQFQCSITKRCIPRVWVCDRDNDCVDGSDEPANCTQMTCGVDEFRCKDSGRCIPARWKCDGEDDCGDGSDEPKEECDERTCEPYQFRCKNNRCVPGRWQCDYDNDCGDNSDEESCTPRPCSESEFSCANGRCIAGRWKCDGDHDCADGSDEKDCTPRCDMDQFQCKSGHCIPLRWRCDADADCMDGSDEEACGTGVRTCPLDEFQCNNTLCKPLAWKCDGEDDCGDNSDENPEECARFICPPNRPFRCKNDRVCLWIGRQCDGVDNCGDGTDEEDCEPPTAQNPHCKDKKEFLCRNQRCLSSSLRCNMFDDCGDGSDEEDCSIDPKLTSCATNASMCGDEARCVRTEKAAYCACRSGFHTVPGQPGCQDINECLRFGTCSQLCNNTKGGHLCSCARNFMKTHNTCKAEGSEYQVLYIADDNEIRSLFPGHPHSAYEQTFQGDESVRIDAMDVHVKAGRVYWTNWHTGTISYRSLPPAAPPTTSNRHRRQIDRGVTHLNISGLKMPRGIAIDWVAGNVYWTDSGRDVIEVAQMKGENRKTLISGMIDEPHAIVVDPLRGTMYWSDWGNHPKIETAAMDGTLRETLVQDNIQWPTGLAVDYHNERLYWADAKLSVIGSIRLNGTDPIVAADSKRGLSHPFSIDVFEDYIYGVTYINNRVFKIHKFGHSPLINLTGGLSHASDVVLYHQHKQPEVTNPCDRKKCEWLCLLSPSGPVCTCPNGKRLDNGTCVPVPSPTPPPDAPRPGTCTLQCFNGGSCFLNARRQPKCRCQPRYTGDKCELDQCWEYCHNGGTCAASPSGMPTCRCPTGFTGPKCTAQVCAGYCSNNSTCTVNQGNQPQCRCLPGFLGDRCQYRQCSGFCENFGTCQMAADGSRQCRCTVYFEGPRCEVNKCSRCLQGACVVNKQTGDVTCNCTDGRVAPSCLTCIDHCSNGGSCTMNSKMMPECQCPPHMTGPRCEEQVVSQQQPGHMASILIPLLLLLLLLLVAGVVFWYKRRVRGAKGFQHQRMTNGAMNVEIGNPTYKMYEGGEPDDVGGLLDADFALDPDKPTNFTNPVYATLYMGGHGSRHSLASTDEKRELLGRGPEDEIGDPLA

For “Factor VIII, P00451 20-1667; P00451 1668-2351”, in assay [1], the Binding (resonance units) (resonance units) was found to be 262.

The substance “heavy chain of Factor VIII (from UniProt P00451 20-1667)” had a Binding (resonance units) (resonance units) in assay [1] of 0.

For “normal Factor VIII (produced by stably transfected mouse fibroblast C127 cells) (from UniProt P00451 20-2351)”, in assay [2], the Ratio +RAP/-RAP of Factor VIII expression (U/L) in medium of C127 cells, 2 h was 3.2 and the Ratio +RAP/-RAP of Factor VIII expression (U/L) in medium of C127 cells, 3 h worked out at 2.3.

On to “thrombin-activated Factor VIII (from UniProt P00451 20-391; P00451 392-759; P00451 1709-2351)”, for which, in assay [1], the Binding (resonance units) (resonance units) came out at 446.
